To fix the notation:
B1: ZMYND11 (parent)
chain: YCSIKCQQEHWHAEHKRTCRRKR
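Note: lentivirally expressed fusions sorted by FACS into six bins by GFP to DsRed ratio, PSI derived from sequencing read proportions per bin multiplied by bin number.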

Variants of B1 are the subject of the series. The series is described as follows: protein stability index of a GFP-peptide fusion (GPS, HEK-293T) (PSI 1-6); higher = more stable. Conditions: c terminus: native.
Take YCLIKCQQEHWHAEHKRTCRRKR [S3L]: the protein stability index turned out to be 1.7.
As for YCGIKCQQEHWHAEHKRTCRRKR [S3G], the protein stability index turned out to be 1.86.
With YCYIKCQQEHWHAEHKRTCRRKR [S3Y], the protein stability index was 1.94.
In the case of YCVIKCQQEHWHAEHKRTCRRKR [S3V], the protein stability index was found to be 2.36.
YCMIKCQQEHWHAEHKRTCRRKR [S3M]: the protein stability index is 2.19.
For the variant YCNIKCQQEHWHAEHKRTCRRKR [S3N], the protein stability index amounted to 2.85.
Next, YCKIKCQQEHWHAEHKRTCRRKR [S3K]: 2.61.
The value for YCRIKCQQEHWHAEHKRTCRRKR [S3R] was 2.19; that for YCEIKCQQEHWHAEHKRTCRRKR [S3E] was 3.27; that for YCCIKCQQEHWHAEHKRTCRRKR [S3C] was 3.31.
In the case of YCPIKCQQEHWHAEHKRTCRRKR [S3P], the protein stability index amounted to 2.17.
The value for YCAIKCQQEHWHAEHKRTCRRKR [S3A] was 1.96.
Consider YCTIKCQQEHWHAEHKRTCRRKR [S3T], for which the protein stability index was 2.48.
On to YCFIKCQQEHWHAEHKRTCRRKR [S3F], for which the protein stability index stood at 1.11.
As to YCIIKCQQEHWHAEHKRTCRRKR [S3I], the protein stability index stood at 1.84.
On to YCHIKCQQEHWHAEHKRTCRRKR [S3H], for which the protein stability index stood at 2.24.
With YCWIKCQQEHWHAEHKRTCRRKR [S3W], the protein stability index came to 1.51.
The value for YCDIKCQQEHWHAEHKRTCRRKR [S3D] was 3.07.
Next, YCQIKCQQEHWHAEHKRTCRRKR [S3Q]: 2.59.
Next, YCSIKVQQEHWHAEHKRTCRRKR [C6V]: 2.59; YCSIKQQQEHWHAEHKRTCRRKR [C6Q]: 1.59.
Take YCSIKRQQEHWHAEHKRTCRRKR [C6R]: the protein stability index came out at 1.56.
The value for YCSIKWQQEHWHAEHKRTCRRKR [C6W] was 1.77; that for YCSIKPQQEHWHAEHKRTCRRKR [C6P] was 2.57.
Turning to YCSIKMQQEHWHAEHKRTCRRKR [C6M], the protein stability index is 1.9.
Next, YCSIKEQQEHWHAEHKRTCRRKR [C6E]: 2.87; YCSIKIQQEHWHAEHKRTCRRKR [C6I]: 1.78.
Next, YCSIKFQQEHWHAEHKRTCRRKR [C6F]: 1.96; YCSIKTQQEHWHAEHKRTCRRKR [C6T]: 1.87.
As to YCSIKGQQEHWHAEHKRTCRRKR [C6G], the protein stability index came to 2.74.
For YCSIKLQQEHWHAEHKRTCRRKR [C6L], the protein stability index turned out to be 1.75.
The value for YCSIKSQQEHWHAEHKRTCRRKR [C6S] was 2.38; that for YCSIKNQQEHWHAEHKRTCRRKR [C6N] was 1.76; that for YCSIKAQQEHWHAEHKRTCRRKR [C6A] was 2.39.
Next, YCSIKYQQEHWHAEHKRTCRRKR [C6Y]: 2.07; YCSIKDQQEHWHAEHKRTCRRKR [C6D]: 2.69; YCSIKKQQEHWHAEHKRTCRRKR [C6K]: 2.69.
Next, YCSIKHQQEHWHAEHKRTCRRKR [C6H]: 2.9; YCSIKCQHEHWHAEHKRTCRRKR [Q8H]: 2.21; YCSIKCQGEHWHAEHKRTCRRKR [Q8G]: 2.47.
Take YCSIKCQCEHWHAEHKRTCRRKR [Q8C]: the protein stability index was found to be 2.51.
Next, YCSIKCQKEHWHAEHKRTCRRKR [Q8K]: 2.77.
Consider YCSIKCQEEHWHAEHKRTCRRKR [Q8E], for which the protein stability index was found to be 2.34.
The value for YCSIKCQFEHWHAEHKRTCRRKR [Q8F] was 2.84; that for YCSIKCQAEHWHAEHKRTCRRKR [Q8A] was 2.33; that for YCSIKCQDEHWHAEHKRTCRRKR [Q8D] was 2.7.
Next, YCSIKCQIEHWHAEHKRTCRRKR [Q8I]: 1.49; YCSINCQQEHWHAEHKRTCRRKR [K5N]: 2.53; YCSIFCQQEHWHAEHKRTCRRKR [K5F]: 1.67.
The value for YCSIHCQQEHWHAEHKRTCRRKR [K5H] was 2.07; that for YCSICCQQEHWHAEHKRTCRRKR [K5C] was 3.25.
On to YCSIYCQQEHWHAEHKRTCRRKR [K5Y], for which the protein stability index was determined as 2.91.
The value for YCSIICQQEHWHAEHKRTCRRKR [K5I] was 1.56.
The value for YCSIMCQQEHWHAEHKRTCRRKR [K5M] was 2.27; that for YCSIDCQQEHWHAEHKRTCRRKR [K5D] was 2.63.
The value for YCSIRCQQEHWHAEHKRTCRRKR [K5R] was 3.15.
YCSISCQQEHWHAEHKRTCRRKR [K5S]: the protein stability index was determined as 2.22.
The value for YCSIQCQQEHWHAEHKRTCRRKR [K5Q] was 3.2; that for YCSIVCQQEHWHAEHKRTCRRKR [K5V] was 1.66.
The value for YCSIACQQEHWHAEHKRTCRRKR [K5A] was 2.09; that for YCSIECQQEHWHAEHKRTCRRKR [K5E] was 2.51; that for YCSIPCQQEHWHAEHKRTCRRKR [K5P] was 1.75.
Consider YCSIGCQQEHWHAEHKRTCRRKR [K5G], for which the protein stability index came to 2.09.
The value for YCSILCQQEHWHAEHKRTCRRKR [K5L] was 2.09; that for YCSITCQQEHWHAEHKRTCRRKR [K5T] was 2.6.
Consider YCSIKCNQEHWHAEHKRTCRRKR [Q7N], for which the protein stability index stood at 2.38.
For the variant YCSIKCVQEHWHAEHKRTCRRKR [Q7V], the protein stability index was found to be 1.37.
Next, YCSIKCPQEHWHAEHKRTCRRKR [Q7P]: 2.2.
For YCSIKCWQEHWHAEHKRTCRRKR [Q7W], the protein stability index turned out to be 1.53.
As for YCSIKCHQEHWHAEHKRTCRRKR [Q7H], the protein stability index came out at 2.69.
YCSIKCFQEHWHAEHKRTCRRKR [Q7F]: the protein stability index turned out to be 1.67.
In the case of YCSIKCIQEHWHAEHKRTCRRKR [Q7I], the protein stability index came to 2.44.
With YCSIKCCQEHWHAEHKRTCRRKR [Q7C], the protein stability index came out at 1.95.
For the variant YCSIKCKQEHWHAEHKRTCRRKR [Q7K], the protein stability index worked out at 3.05.
The value for YCSIKCEQEHWHAEHKRTCRRKR [Q7E] was 2.42; that for YCSIKCGQEHWHAEHKRTCRRKR [Q7G] was 2.46.
YCSIKCMQEHWHAEHKRTCRRKR [Q7M]: the protein stability index was 2.15.
Next, YCSIKCSQEHWHAEHKRTCRRKR [Q7S]: 3.18; YCSIKCLQEHWHAEHKRTCRRKR [Q7L]: 2.21; YCSIKCTQEHWHAEHKRTCRRKR [Q7T]: 2.63.
In the case of YCSIKCAQEHWHAEHKRTCRRKR [Q7A], the protein stability index turned out to be 2.36.
Next, YCSIKCYQEHWHAEHKRTCRRKR [Q7Y]: 2.35; YCSIKCDQEHWHAEHKRTCRRKR [Q7D]: 2.56.
Next, YCSQKCQQEHWHAEHKRTCRRKR [I4Q]: 1.94.
The value for YCSPKCQQEHWHAEHKRTCRRKR [I4P] was 2.38; that for YCSHKCQQEHWHAEHKRTCRRKR [I4H] was 2.62.
YCSNKCQQEHWHAEHKRTCRRKR [I4N]: the protein stability index stood at 2.9.
The value for YCSEKCQQEHWHAEHKRTCRRKR [I4E] was 3.25.
The value for YCSGKCQQEHWHAEHKRTCRRKR [I4G] was 1.84.
The value for YCSWKCQQEHWHAEHKRTCRRKR [I4W] was 1.89; that for YCSVKCQQEHWHAEHKRTCRRKR [I4V] was 2.51; that for YCSKKCQQEHWHAEHKRTCRRKR [I4K] was 2.37.
As to YCSTKCQQEHWHAEHKRTCRRKR [I4T], the protein stability index was 2.08.
The value for YCSLKCQQEHWHAEHKRTCRRKR [I4L] was 2.14; that for YCSCKCQQEHWHAEHKRTCRRKR [I4C] was 2.67; that for YCSDKCQQEHWHAEHKRTCRRKR [I4D] was 2.6.
